According to patent US20260139026A1 (Memorial Sloan Kettering, published 2026):

Assays:
recombinant HLA-A*03:01 = molecular target: T1, recombinant HLA-A*03:01 (human); test: differential scanning fluorimetry of peptide/HLA-A*03:01, two technical replicates
T1 construct: MHC class I molecule used in differential scanning fluorimetry and crystallography. 'Recombinant' is printed only for the crystal structures; also called HLA-A*03:01 molecule
Source text: Experiments included two technical replicates for each group. […] It measured the change in fluorescent signal of a dye that binds preferentially to hydrophobic resides that are exposed as an unstable protein unfolds.

[1] = molecular target: P7 peptide … pulsed on HLA-A*03:01 cells (human, UniProt A*03:01); test: cell-based or functional assay
[2] = molecular target: P4 peptide … pulsed on HLA-A*03:01 cells (human, UniProt A*03:01); test: cell-based or functional assay
[3] = molecular target: P6 peptide … pulsed on HLA-A*03:01 cells (human, UniProt A*03:01); test: cell-based or functional assay
[4] = molecular target: P8 peptide … pulsed on HLA-A*03:01 cells (human, UniProt A*03:01); test: cell-based or functional assay
[5] = molecular target: P2 peptide … pulsed on HLA-A*03:01 cells (human, UniProt A*03:01); test: cell-based or functional assay
[6] = molecular target: P5 peptide … pulsed on HLA-A*03:01 cells (human, UniProt A*03:01); test: cell-based or functional assay
[7] = molecular target: P3 peptide … pulsed on HLA-A*03:01 cells (human, UniProt A*03:01); test: cell-based or functional assay
[8] = molecular target: P9 peptide … pulsed on HLA-A*03:01 cells (human, UniProt A*03:01); test: cell-based or functional assay

| loss in function against the unmodified mutated 9-mer [1] [% loss in function] | loss in function against the unmodified mutated 9-mer [2] [% loss in function] | loss in function against the unmodified mutated 9-mer [3] [% loss in function] | loss in function against the unmodified mutated 9-mer [4] [% loss in function] | loss in function against the unmodified mutated 9-mer [5] [% loss in function] | loss in function against the unmodified mutated 9-mer [6] [% loss in function] | loss in function against the unmodified mutated 9-mer [7] [% loss in function] | loss in function against the unmodified mutated 9-mer [8] [% loss in function] | Binder | melting temperature (recombinant HLA-A*03:01) [degrees] |
| --- | --- | --- | --- | --- | --- | --- | --- | --- | --- |
| – | – | – | – | – | – | – | – | AHHGGWTTK (also called WT peptide) [wildtype PIK3CA minimal peptide AHHGGWTTK] | 36 |
| > 50 | > 50 | > 50 | > 50 | > 50 | > 50 | > 50 | > 50 | 1022T8 TCR (TCR, V domains shown) V domain 1: GDSVTQMEGPVTLSEEAFLTINCTYTATGYPSLFWYVQYPGEGLQLLLKATKADDKGSNKGFEATYRKETTSFHLEKGSVQVSDSAVYFCALTVGGSYIPTFGRGTSLIVHP V domain 2: DTEVTQTPKHLVMGMTNKKSLKCEQHMGHRAMYWYKQKAKKPPELMFVYSYEKLSINESVPSRFSPECPNSSLLNLHLHALQPEDSALYLCASSQGGQGWRETQYFGPGTRLLVLE | – |
